Tests used:
[1] = biological target: RSV postfusion F (postF), F ΔFP trimer, subtype A (Respiratory Syncytial Virus, subtype A, UniProt P03420 26-513); assay: BLI, IgG on anti-human IgG sensors
[2] = biological target: RSV F on RSV subtype A virus (RSV-A2) (Respiratory Syncytial Virus, subtype A, …, UniProt P03420 26-574); assay: cell-based or functional assay
[3] = biological target: RSV prefusion F (preF), DS-Cav1 stabilized trimer, subtype A (Respiratory Syncytial Virus, subtype A, UniProt P03420 26-513); assay: BLI, IgG on anti-human IgG sensors, 100 nM antigen, apparent KD
[4] = biological target: T1, RSV postfusion F, subtype B (postF trimer) (Respiratory syncytial virus subtype B, UniProt P13843 26-513); assay: BLI, IgG apparent affinity
T1 construct: also called Postfusion subtype B

[5] = biological target: T2, RSV postfusion F, subtype A (postF, F ΔFP trimer) (Respiratory syncytial virus subtype A, UniProt P03420 26-513); assay: BLI, IgG apparent affinity
T2 construct: also called Postfusion subtype A

[6] = biological target: RSV prefusion F, subtype A (preF, DS-Cav1 trimer) (Respiratory syncytial virus subtype A, UniProt P03420 26-513); assay: BLI, IgG apparent affinity
[7] = biological target: RSV F on recombinant mKate-RSV A2 virus (Respiratory syncytial virus A2, UniProt P03420 26-574); assay: cell-based or functional assay
[8] = biological target: RSV F on recombinant mKate-RSV B 18537 virus (Respiratory syncytial virus B 18537, UniProt P13843 26-574); assay: cell-based or functional assay
[9] = biological target: RSV F on RSV-A2 virus (Respiratory Syncytial Virus (RSV-A2), UniProt P03420 26-574); assay: cell-based or functional assay
[10] = biological target: RSV postfusion F (postF), F ΔFP (Respiratory Syncytial Virus, UniProt P03420 26-513); assay: BLI, IgG on anti-human IgG sensor
[11] = biological target: RSV prefusion F (preF), DS-Cav1 (Respiratory Syncytial Virus, UniProt P03420 26-513); assay: BLI, IgG on anti-human IgG sensor, 100 nM antigen, 1:1 fit

| Binder | Kd [4] | Kd [5] | Kd [6] | Neut IC50 (ug/ml) subtype A [7] | Neut IC50 (ug/ml) subtype B [8] | also measured |
| --- | --- | --- | --- | --- | --- | --- |
| ADI-41815 (antibody, V domains shown, also called Ab 922; Antibody Number 922) VH: EVQLLESGGGLVKPGGSLRLSCGASGFTFSTSSFNWVRQAPGKGLEWVSSISSTSSYVFYADSVKGRFTVSRDNAQNSLYLQMNSLRAEDTAVYYCARARGVGATIGFDYWGQGTLVTVSS VL: not shown | – | – | – | – | – | binding result [1]: no binding (tested: 100 nM antigen); Neutralization IC50 (RSV subtype A) [2]: > 25 µg/mL; Kd [3]: 3.21 nM |
| ADI-41820 (antibody, V domains shown, also called Ab 926; Antibody Number 926) VH: EVQLVESGGGVVQPGRSLRLSCAVSGFTFSTYGMHWVRQTPGRGLEWVAVISYDGNHKYYADSVMGRFTISRDNSKDTLYLQVNSLRPEDSAVYYCAKDRIHCPNGVCYVHSSFYGLDVWGQGTTVTVSS VL: QTVVTQEPSLTVSPGGTVTLTCGSSTGAVTSGHYPYWLQQKPGQAPRTLIYDTTNKDSWTPARFSGSLLGGKAALTLSGAQPEDEAQYYCLLSFNGPYWVFGGGTKVTVL | – | – | – | – | – | binding result [1]: no binding (tested: 100 nM antigen); Neutralization IC50 (RSV subtype A) [2]: > 25 µg/mL; Kd [3]: 64.9 nM |
| ADI-41827 (antibody, V domains shown) VH: EVQLSESAGGVVQPGGSLRLTCAASGFSFSTNGMHWVRQAPGKGLEWVAFIRYDGSKKYYAESVKGRFTISREDSNNTLYLQMNSLRPEDTAVYYCAKEDCSGGTCYHERNYYYYGMDVWGQGTTVTVSS VL: QPVLTQPPSLPVSPGQTASITCSGDKLEYKYACWYQHKPGQSPVLVIYQDNKRPSGIPERFSGSNSGNTATLTISGTQPMDEADYYCQAWDSSTVVFGGGTKVTVL | – | – | – | – | – | binding result [1]: no binding (tested: 100 nM antigen); Neutralization IC50 (RSV subtype A) [2]: > 25 µg/mL; Kd [3]: 0.186 nM |
| ADI-41833 (antibody, V domains shown) VH: EVQLLESGGGLVQPGGSLRLSCAASRFTFSTYAMSWVRQAPGKGLEWVSSISGSGDKTFYTDSVKGRFTISRDNSKNTLYLQMNSLRAEDTAVYYCARESYYELWTGTYPGWELDYWGQGTLVTVSS VL: DIQLTQSPSSLSASVGDRVTITCRASQDISNYLAWYQQKPGKPPKLLIYAASILESGAPSRFSGSGSGTDFTLTISSLQPEDVGTYYCQKSNSAPRPFGQGTKVEIK | – | – | – | – | – | binding result [1]: no binding (tested: 100 nM antigen); Neutralization IC50 (RSV subtype A) [2]: 0.02 µg/mL; Kd [3]: 0.723 nM |
| ADI-21068 (antibody, V domains shown) VH: QVQLQESGPGLVKPSGTLSLTCVVSGGSIKSHNYWTWVRQPPGKGLEWVGEIYQSGRTNYNPSLNSRVTLSMDKSKNQLSLRLTSVTAADTAVYFCVGGGPFAPYYFQTWGQGTLVTVSS VL: QSVLTQPPSVSGAPGQRVTISCTGSSSNIGAGYDVHWYQQLPGTAPKLLIYNNNNRPSGVPDRFSGSKSGTSASLAITGLQAEDEADYYCQSYDTSLSGYVFGTGTKVTVL | 7.85 nM | 15.5 nM | 0.255 nM | 0.1 µg/mL | – | – |
| ADI-21070 (antibody, V domains shown) VH: EVQLVESGGGLVQPGGSLRLSCAASGFTFSRYAMGWVRQAPGKGLEWVSTISDSGGSTFYADSVEGRFTIARDSSKNTLSLHMNSLRAEDTAIYYCAREAYSSSWYSGGWFDRWGQGTLVTVSS VL: not shown | – | – | 5.37 nM | – | 2.38 µg/mL | binding result [4]: no binding; binding result [5]: no binding |
| ADI-21073 (antibody, V domains shown) VH: EVQLVESGGGLVRPGRSLRLSCAASGFTFSMFSMNWVRQAPGKGLEWLAYIGGSGSTIDYANSVSGRFTISRDNAKNSLYLQMNSLRDEDTAVYYCARIGLQTYNSHSSSSSPARAFDVWGQGTTVTVSS VL: DIVLTQSPSSLSASVGDRVTITCRASQSIGRFLNWYQQKPGKAPKLLIYAASSLESGVPSRFSGSGSGTQFSLTISSLQPEDFTTYYCQQSYSTPTTFGGGTKVDIK | 0.675 nM | 0.58 nM | 4.06 nM | – | 11.2 µg/mL | – |
| ADI-21076 (antibody, V domains shown) VH: EVQLVESGGGLVRPGGSLRLSCAASGFTFSSYAMDWVRQAPGKGLEWVSSISASSSFISYTDSVKGRFTISRDNAKNSLFLQMDNVTAEDTAVYYCARDYYESGRYFYGNPFDIWGQGTMVTVSS VL: QPVLTQPPSVSGAPGQRVTISCTGSGSNIGAGFDVHWYQQLPGTAPKLLIYANSDRPSGVPDRFSASKSGTSASLAITGLQAEDEAHYYCQSYDNSLGGLCVFGTGTKLTVL | 6.28 nM | 7.34 nM | 0.219 nM | 0.03 µg/mL | 0.3 µg/mL | – |
| ADI-21083 (antibody, V domains shown) VH: QVQLQESGPGLVKPSGTLSLTCAVSGDSITTSNWWSWVRQPPGKGLEWIGEIYHSGVTRYNPSLKSRLSISLDKSRNQFSLKLSSVTAADTAVYYCARDEALFGHWFDPWGQGTLVTVSS VL: QSVLTQPRSVSGSPGQSVTISCTGSSSDIGSYNYVSWYQQHPGKAPKLMLYDVSKRPSGVPDRFSGSKSVKTASLTISGLQAEDEADYYCCTYAGNSVVFGGGTKLTVL | – | – | 2.25 nM | 0.36 µg/mL | 0.79 µg/mL | binding result [4]: no binding; binding result [5]: no binding |
| ADI-21084 (antibody, V domains shown) VH: EVQLVESGAEVKKPGASVTVSCKASGYTFTSNTISWLRQAPGQGLEWLGWVSASNGNTKYAQKFQGRVTMTTDTSATTAYMEVRTLRHDDTAIYYCARDILDMGGFHFDNWGQGTLVTVSS VL: SYVLTQPPSVSVAPGQTARITCGGNNIGNKHVHWYKQKPGQAPVLVVYDDSDRPSGIPERFSGSNSGNTATLTVSRVEAGDEADFYCQVWDNTNDHPVFGGGTKVTVL | 22.9 nM | 17.3 nM | 0.109 nM | 0.14 µg/mL | 0.46 µg/mL | – |
| ADI-21085 (antibody, V domains shown, also called Ab 330) VH: EVQLVETGGGLVKPGGSLRLSCEASGFNFRSYSMNWVRQAPGKGLEWVSSISASSSYINYADSVKGRFTISRDNSKNSLYLQMNSLRAEDTGVYYCARVLVHYYYGMDVWGQGTTVTVSS VL: QSVLTQPPSVSAAPGQRVTISCTGTSSNIGAGYDVHWYQQLPGRAPKLLILGNNNRPSGVPDRFSGSKSGTSASLAITGLQAEDEADYYCQTYDKTLMEIFGGGTKLTVL | 6.24 nM | – | 0.307 nM | 0.1 µg/mL | 0.48 µg/mL | binding result [5]: no binding |
| ADI-21091 (antibody, V domains shown) VH: QVQLVQSGAEVKKPGESLRISCQYSAYGFSTYWISWVRQLPGKGLEWMGRIDPSDSHTTYSPSFQGHVTLSADKSISTVYLQWSSLKASDTAMYYCARHQEYSGSDLDSWGQGTLVTVSS VL: QPVLTQPPSVSAAPGQRVTISCSGTRSNIGYNFVSWYQQLPGTAPKLLIYDNNKRPSGIPDRFSGSKSGTSATLAITGLQTGDEADYYCGTWDSSLSALFGGGTKVTVL | – | – | 0.749 nM | 0.29 µg/mL | 0.92 µg/mL | binding result [4]: no binding; binding result [5]: no binding |
| ADI-43646 (antibody, V domains shown) VH: EMQLMQSGGVVVQPGGSLRLSCAASGFTFDDYAMHWVRQAPGKGLEWVSLISWDGGSTYYADSVKGRFTISRDNSKNSLYLQMNSLRAEDTALYYCAKDFDPLVVPAAMCFDYWGQGTLVTVSS VL: QSVLIQPASVSGSPGQSITISCTGTSSDVGGYNYVSWYQQHPGKAPKLMIYDVSNRPSGVSNRFSGSKSGNTASLTISGLQAEDEADYYCSSYTSSSTLYVFGTGTKLTVL | – | – | – | – | – | Neutralization IC50 (RSV subtype A) [9]: > 25 µg/mL; binding result [10]: no binding; Kd [11]: 5.34 nM |
| ADI-21071 (antibody, V domains shown) VH: EVQLVESGGGVVQPGKSLRLSCAVSGFTFSDHDMHWVRQAPGKGLEWVAAIWSDRTTKYYGDFVKGRFTISRDNSKNTLYLQMNSLRAEDTAVYYCARGQIYKSGGYYLVHLDHWGQGTLVTVSS VL: DIQVTQSPSSLSASVGDRVTITCRASQSIASYLNWYQQKPGKAPNLLIYAASNLQSEVPSRFSGSGSGTDFTLTISGLQPEDFATYYCQQSYNIRLLTFGGGTKVEIK | 1.38 nM | 0.216 nM | 1.17 nM | – | – | – |
| ADI-21087 (antibody, V domains shown) VH: EVQLVESGGGLVQPGGSLRLSCAASGFTFSGYEMNWVRQAPGKGLEWLSYISSSGGIIYYADSVKGRFTISRDNARNSLFLQMNSLRAEDTAVYSCARARLLDGFDIWGQGTMVTVSS VL: not shown | 0.476 nM | 0.545 nM | – | – | – | binding result [6]: no binding |
| ADI-21090 (antibody, V domains shown) VH: EVQLLESGGGLVKPGGSLRLSCAASGFTSGFTFSDFYMSWIRLTPGKGLEWISYISTHSTSTNYADSVRGRFIISRDDARNSLFLQMNSLRAEDTAVYYCAGYYYGSGSYFFDHWGQGTLVTVSS VL: ETTLTQSPATLSVSPGERATLSCRASQSVSSNVAWYQQKPGQAPRLLIYSASSRDTGIPVRFSGSGSGTEFTLSISSLQSEDFAVYYCQQYSDWPTFGQGTKVEIK | 0.175 nM | 0.176 nM | 1.17 nM | – | – | – |

Source: patent publication US20260258115A1 (MAPP BIOPHARMACEUTICAL, published 2026)
